Patent US20260242478A1 (published 2026)

B1: Phage-70, clonal phage peptide ITWCPSSMWNRCFI (peptide)
peptide: ITWCPSSMWNRCFI
notes: tested as crude clonal phage supernatant; not shown: pIII of the bacteriophage to which the peptide is fused
B2: Phage-69, clonal phage peptide MDWCPIHMWADCFA (peptide)
peptide: MDWCPIHMWADCFA
notes: as for B1
B3: Phage-72, clonal phage peptide MFWCPTTMWNRCFT (peptide)
peptide: MFWCPTTMWNRCFT
notes: as for B1
B4: Phage-246 (peptide)
peptide: MDWCPKHLWNKCFN
B5: Phage-78, clonal phage peptide MDWCPRHLWHECFN (peptide)
peptide: MDWCPRHLWHECFN
notes: as for B1
B6: Phage-73, clonal phage peptide MDWCPRALWHECFN (peptide)
peptide: MDWCPRALWHECFN
notes: as for B1
B7: Phage-86, clonal phage peptide MDWCPRHLWAECFF (peptide)
peptide: MDWCPRHLWAECFF
notes: as for B1
B8: Phage-92, clonal phage peptide MDWCPRHLWHECFF (peptide)
peptide: MDWCPRHLWHECFF
notes: as for B1
B9: Phage-88, clonal phage peptide MDWCPIHLWHYCFN (peptide)
peptide: MDWCPIHLWHYCFN
notes: as for B1
B10: Phage-87, clonal phage peptide MDWCPKDLWYLCFA (peptide)
peptide: MDWCPKDLWYLCFA
notes: as for B1
B11: Phage-390 (peptide)
peptide: IDWCPMHMWDFCYN
B12: Phage-66, clonal phage peptide MDWCPRYLWNECFY (peptide)
peptide: MDWCPRYLWNECFY
notes: as for B1
B13: Phage-358 clonal phage peptide MDWCPPHLWHECFF (peptide)
peptide: MDWCPPHLWHECFF
B14: Phage-392 (peptide)
peptide: LHWCPTSMWTYCYY
B15: Phage-68, clonal phage peptide MDWCPMYMWYECFA (peptide)
peptide: MDWCPMYMWYECFA
notes: as for B1
B16: Phage-298 (peptide)
peptide: MDWCPLYLWAECFN
notes: tested as crude phage supernatant
B17: Phage-297 (peptide)
peptide: MDWCPRHLWTECFS
notes: as for B16
B18: Phage-67, clonal phage peptide MNWCPTALWHVCFN (peptide)
peptide: MNWCPTALWHVCFN
notes: as for B1
B19: Phage-76, clonal phage peptide MDWCPRYLWSDCFA (peptide)
peptide: MDWCPRYLWSDCFA
notes: as for B1
B20: Phage-83, clonal phage peptide … (peptide)
peptide: MDWCPRFLWDECFN
notes: as for B1
B21: Phage-203 (peptide)
peptide: MSWCPRDMWFYCYA
notes: tested as crude clonal phage supernatant
B22: Phage-77, clonal phage peptide MDWCPFYLWDECFN (peptide)
peptide: MDWCPFYLWDECFN
notes: as for B1
B23: Phage-79, clonal phage peptide MDWCPRDLWHECFS (peptide)
peptide: MDWCPRDLWHECFS
notes: as for B1
B24: Phage-199 (peptide)
peptide: MDWCPRNMWAQCFA
notes: as for B21
B25: Phage-90, clonal phage peptide MDWCPIDLWHLCFY (peptide)
peptide: MDWCPIDLWHLCFY
notes: as for B1
B26: Phage-75, clonal phage peptide MDWCPRSHWHVCYN (peptide)
peptide: MDWCPRSHWHVCYN
notes: as for B1
B27: Phage-89, clonal phage peptide MDWCPRALWNVCFN (peptide)
peptide: MDWCPRALWNVCFN
notes: as for B1
B28: Phage-198 (peptide)
peptide: MDWCPRAMWNHCFN
notes: as for B21
B29: Phage-84, clonal phage peptide MDWCPKYLWSVCFF (peptide)
peptide: MDWCPKYLWSVCFF
notes: as for B1
B30: Phage-201 (peptide)
peptide: MDWCPRDMWDQCFD
notes: as for B21
B31: Phage-250 (peptide)
peptide: MDWCPKVMWHYCFA
B32: Phage-197 (peptide)
peptide: MDWCPRHMWYECFF
notes: as for B21
B33: Phage-248 (peptide)
peptide: MDWCPRNMWHHCFD
B34: Phage-249 (peptide)
peptide: MDWCPSDMWAHCYN
B35: Phage-247 (peptide)
peptide: MDWCPRFMWAECFN
B36: Phage-74, clonal phage peptide MDWCPRDMWLFCYN (peptide)
peptide: MDWCPRDMWLFCYN
notes: as for B1
B37: Phage-71, clonal phage peptide MDWCPRYLWHECFA (peptide)
peptide: MDWCPRYLWHECFA
notes: as for B1
B38: Phage-211 (peptide)
peptide: MDWCPRNMWTVCFL
notes: as for B21
B39: Phage-202 (peptide)
peptide: MFWCPMDMWDQCFN
notes: as for B21
B40: Phage-289 (peptide)
peptide: MDWCPRYLWNVCFA
notes: as for B16
B41: Phage-82, clonal phage peptide MDWCPRDLWTECFA (peptide)
peptide: MDWCPRDLWTECFA
notes: as for B1
B42: Phage-85, clonal phage peptide MDWCPMDLWYQCFN (peptide)
peptide: MDWCPMDLWYQCFN
notes: as for B1
B43: Phage-200 (peptide)
peptide: MFWCPFDMWHFCFN
notes: as for B21
B44: Phage-91, clonal phage peptide … (peptide)
peptide: MDWCPRDLWFLCYN
notes: as for B1

Tests used:
[1] = target: T1, anti-CD28 scFv (VH - linker 1 - VL) (biotinylated (site not given)); experiment: phage ELISA as before, wells pre-incubated with soluble CD28 (competitor)
T1 sequence (scFv, as listed by the source): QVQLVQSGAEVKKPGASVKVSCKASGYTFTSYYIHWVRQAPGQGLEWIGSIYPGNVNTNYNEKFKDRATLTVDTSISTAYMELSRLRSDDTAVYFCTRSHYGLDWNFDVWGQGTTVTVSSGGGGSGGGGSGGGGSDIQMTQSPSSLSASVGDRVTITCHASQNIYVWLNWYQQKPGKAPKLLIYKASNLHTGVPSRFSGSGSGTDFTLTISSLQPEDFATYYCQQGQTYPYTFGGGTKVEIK

[2] = target: T1, anti-CD28 scFv (VH - linker 1 - VL); experiment: phage ELISA; biotinylated anti-CD28 scFv on neutravidin plate, clonal phage supernatant, anti-M13-HRP detection;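 further: before phage addition, wells were pretreated with soluble CD28 protein in blocking buffer, or with blocking buffer only as the comparison, then phage were added without washing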
Description: (§1) Clonal phage were harvested as crude supernatants and screened via standard enzyme linked immunosorbent assays (ELISAs). […] Prior to the addition of clonal phage, wells were incubated with blocking buffer and CD28 soluble protein or blocking buffer alone. Without washing or aspirating, clonal phage supernatants were then added to the wells and incubated for a short time. Wells were then washed followed by detection of bound phage using a horse radish peroxidase conjugated anti-M13 antibody.

[3] = target: T2, anti-CD28 scFv (VH - linker 1 - VL) (biotinylated (captured on neutravidin coated plates)); experiment: clonal phage ELISA; biotinylated anti-CD28 scFv on neutravidin plate, phage detected with anti-M13-HRP;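 further: crude clonal phage supernatants added to wells preincubated with blocking buffer alone or blocking buffer plus soluble CD28 protein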
T2 sequence (scFv, as listed by the source): as above
Description: as §1

[4] = target: T2, anti-CD28 scFv (VH - linker 1 - VL); experiment: clonal phage ELISA on anti-CD28 scFv; wells pre-incubated with soluble CD28 (competitor);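 further: crude phage supernatants added to wells preloaded with blocking buffer plus soluble CD28, bound phage read with HRP-linked anti-M13 antibody, comparison wells received blocking buffer only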
Description: as §1

[5] = target: T3, Anti-CD28 scFv (VH - linker 1 - VL) (biotinylated (site not stated)); experiment: phage ELISA as above, wells pre-incubated with soluble CD28 (competitor);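 further: ELISA of crude clonal phage supernatants added to wells pre-treated with soluble CD28 in blocking buffer, bound phage read out with HRP-conjugated anti-M13 antibody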
T3 construct: Captured as biotinylated scFv on neutravidin plates in the panning ELISA
T3 sequence (scFv, as listed by the source): as above

[6] = target: anti-CD28 scFv (VH - linker 1 - VL) (biotinylated (site not stated)); experiment: phage ELISA; biotinylated anti-CD28 scFv on neutravidin plate, clonal phage supernatant, anti-M13-HRP;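 further: before the phage were added, wells were pre-incubated with soluble CD28 protein in blocking buffer, or with blocking buffer alone, and were not washed in between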
Target sequence in this assay (scFv, as listed by the source): as above

[7] = target: T4, Anti-CD28 scFv (VH - linker 1 - VL) (biotinylated (site not stated)); experiment: phage ELISA; biotinylated anti-CD28 scFv on neutravidin plate, wells pre-incubated with soluble CD28 (competitor), anti-M13-HRP detection;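 further: bound clonal phage detected by peroxidase-labelled anti-M13 antibody, compared against wells given blocking buffer alone without soluble CD28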
T4 construct: Biotinylated scFv captured on neutravidin coated plates in the panning ELISA
T4 sequence (scFv, as listed by the source): as above

[8] = target: T5, anti-CD28 scFv (VH - linker 1 - VL) (biotinylated (site not stated)); experiment: clonal phage ELISA; biotinylated anti-CD28 scFv on neutravidin plate, anti-M13-HRP detection;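 further: crude supernatants of phage clones were tested in wells pretreated with blocking buffer either alone or supplemented with soluble CD28 protein before phage addition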
T5 construct: Captured as biotinylated scFv on neutravidin coated plates in the clonal phage ELISA
T5 sequence (scFv, as listed by the source): as above

[9] = target: T5, anti-CD28 scFv (VH - linker 1 - VL); experiment: clonal phage ELISA; captured anti-CD28 scFv pre-incubated with soluble CD28 (competitor), anti-M13-HRP detection;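 further: crude clonal phage supernatants added to wells pretreated with soluble CD28 in blocking buffer, compared against wells given blocking buffer only, then bound phage measured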
Description: as §1

Binder | CD28 scFv signal in presence of CD28 [1] | CD28 scFv signal [2] | further results
B1 | 0.11 | 0.379 | –
B2 | 0.143 | 2.46 | –
B3 | 0.338 | 0.662 | –
B4 | – | – | CD28 scFv signal [3]: 1.16; CD28 scFv signal in presence of CD28 [4]: 0.092
B5 | 0.704 | 2.65 | –
B6 | 0.401 | 2.69 | –
B7 | 0.292 | 2.61 | –
B8 | 0.373 | 2.58 | –
B9 | 0.453 | 2.6 | –
B10 | 0.213 | 2.61 | –
B11 | – | – | CD28 scFv signal in presence of CD28 [5]: 0.232
B12 | 0.358 | 2.54 | –
B13 | – | – | CD28 scFv signal [6]: 1.45
B14 | – | – | CD28 scFv signal in presence of CD28 [5]: 2.46
B15 | 0.358 | 2.48 | –
B16 | – | – | CD28 scFv signal in presence of CD28 [7]: 0.193
B17 | – | – | CD28 scFv signal in presence of CD28 [7]: 0.243
B18 | 0.169 | 1.64 | –
B19 | 1.53 | 2.73 | –
B20 | 0.483 | 2.63 | –
B21 | – | – | CD28 scFv signal [8]: 2.25; CD28 scFv signal in presence of CD28 [9]: 0.174
B22 | 0.291 | 2.67 | –

Binder | CD28 scFv signal in presence of CD28 [1] | CD28 scFv signal [2] | further results
B23 | 0.382 | 2.65 | –
B24 | – | – | CD28 scFv signal [8]: 2.31; CD28 scFv signal in presence of CD28 [9]: 0.209
B25 | 0.488 | 2.59 | –
B26 | 0.281 | 1.95 | –
B27 | 0.472 | 2.6 | –
B28 | – | – | CD28 scFv signal [8]: 2.33; CD28 scFv signal in presence of CD28 [9]: 0.426
B29 | 0.826 | 2.62 | –
B30 | – | – | CD28 scFv signal [8]: 2.29; CD28 scFv signal in presence of CD28 [9]: 0.119
B31 | – | – | CD28 scFv signal [3]: 1.14; CD28 scFv signal in presence of CD28 [4]: 0.252
B32 | – | – | CD28 scFv signal [8]: 2.34; CD28 scFv signal in presence of CD28 [9]: 0.298
B33 | – | – | CD28 scFv signal [3]: 1.6; CD28 scFv signal in presence of CD28 [4]: 0.524
B34 | – | – | CD28 scFv signal [3]: 1.21; CD28 scFv signal in presence of CD28 [4]: 0.109
B35 | – | – | CD28 scFv signal [3]: 2.6; CD28 scFv signal in presence of CD28 [4]: 0.341
B36 | 1.02 | 2.71 | –
B37 | 0.429 | 2.63 | –
B38 | – | – | CD28 scFv signal [8]: 1.12
B39 | – | – | CD28 scFv signal [8]: 2.26; CD28 scFv signal in presence of CD28 [9]: 0.207
B40 | – | – | CD28 scFv signal in presence of CD28 [7]: 0.28
B41 | 0.151 | 2.63 | –
B42 | 0.187 | 2.62 | –
B43 | – | – | CD28 scFv signal [8]: 2.29; CD28 scFv signal in presence of CD28 [9]: 0.469
B44 | 0.424 | 2.59 | –
